Results from the supplement of paper PMC12042874.
± gives the uncertainty stated by the source.

Test: amyloid nucleation score (Sup35N fusion, yeast selection) (log enrichment); library NNK2; higher = more nucleation; inactive = no reads after selection
In short: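 The nucleation score is the log enrichment of output over input reads, calculated with DiMSum and centred on the mode score of non-aggregating sequences. Sequences with under 100 input reads were excluded. Reads came from Illumina sequencing of plasmid inserts from psi-negative yeast expressing Sup35N fused to peptides of 20 random codons, induced 24 hours with 100 μM copper sulfate and grown 7 days at 30°C without adenine and uracil.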

Substance | amyloid nucleation score
IFWTELCNPKFSFC | 9.439 ± 0.023
FKNQGDLQTCLLFD | -0.012 ± 0.79
TPAWQLYGHTVLAGVQKNMV | -0.077 ± 0.37
ICIVGRWYRASVFRVLEDYR | inactive
QIFVR | 0.689 ± 0.55
ASALGRWFTPHVSFIKYGGA | 0.531 ± 0.49
SKVRLQSGYTKHERKNFHWL | -0.001 ± 0.34
DVDSCW | 0.554 ± 0.43
VLAHNSGWNGTKETYCMSNG | -0.436 ± 0.54
VDHLFIRIHSVMIPAL | -0.447 ± 1.1
YCMLCQGWDGICLPEVSAVW | 0.146 ± 0.29
SSYLMTYC | -0.104 ± 0.35
NPALVFIHA | inactive
RVKLACTRLCWLSADFDGNL | 4.04 ± 0.079
CTRRRM | 1.63 ± 0.15
DFTRYYFYIPHRRVHTVH | -0.763 ± 0.4
KCVGYW | 0.811 ± 0.57
KFRMDGGFILNVVHKQHNMV | 0.023 ± 0.8
AVSHCMDDSFWGAIHKRLLY | 3.63 ± 0.15
NFGLEELTGKIGGRTC | 1.04 ± 0.23
RTRLYIDQRRKAFYPGLGFS | 0.347 ± 0.55
VTCASWYYGKISGLYACYRL | 0.641 ± 0.34
PLLSVVYTNLRSSDGRVV | 1.54 ± 0.31
CRLADFAPFRHCFFSHDCSR | 3.57 ± 0.046
DSRCIDTVFNWYEHTSSRYR | -0.287 ± 0.55

Substance | amyloid nucleation score
VVRHLWMTKYCRFMFISTVY | -0.898 ± 0.34
YFYITTCSGMSTDVFMNLLT | -0.422 ± 1
QSMMSFMSRNVFRFFMGKVT | inactive
IFLSSDLTDGVYSSLYDPID | 0.042 ± 1.1
VVRAVYGYQFYGIVL | 0.648 ± 0.25
ISDGCCGMLNAYCFTLVNCK | 4.18 ± 0.062
HLLHVSGLDEIEMWTGDF | -0.332 ± 0.39
RRRCYHTVSKFRWNIQSAVT | -0.337 ± 1
VEREDVHKGRRFAQACNNLV | 0.495 ± 0.41
MHQVFIKEYAEYYRVCERRM | 2.05 ± 0.064
SVVVNPCLLA | -0.623 ± 1
QVALGNVCNRLYTLMARQAN | -0.283 ± 0.26
KGRGCRFLMLYYRVYMFRGS | 0.471 ± 0.5
YLLMTKCVTVAERMGIMISC | -0.95 ± 1
VFAMDYDVCDNSTCHKGV | -0.057 ± 0.21
KLMYLKLK | -0.038 ± 1.1
MLVRIYLYRKRSYMVRSALM | 1.52 ± 0.12
MTCRRCNNAMWSGLLRLKIY | 2.97 ± 0.17
PCRFTYRRWTG | -0.496 ± 0.41
PSTIGRMVVLACWSDICRRG | 8.88 ± 0.059
PYGVSPWVRVVSCSIEGNWT | -0.289 ± 0.25
LVGRRWVFTDCKGFRASVNF | inactive
KGFEIFSSFTLYV | -0.684 ± 0.55
WLYYDGSFW | -0.429 ± 0.76
PVYSSFYCCYVWHRNFRKYT | -0.975 ± 0.29

Substance | amyloid nucleation score
VILVSVASINSRCVIGFSKF | 4.64 ± 0.07
NCEPELLAVLSRCFSSIWVS | -1.27 ± 0.78
LITINLSV | 8.427 ± 0.049
RLKVVLRYLASGHWKLVA | 1.31 ± 0.41
QIFLIKIGAFVLLLTVQ | -1.34 ± 0.54
SVIIQLSYTRGYWLLQA | -0.845 ± 0.45
HRWVVWEYTGLAFYLAALEY | -0.469 ± 0.36
PLGSNACPTHFSCD | inactive
FNTILVRLPA | 0.455 ± 0.55
YNKLGCTARFTRAMWTFCGV | 0.066 ± 1
CDFLLLKLFRNVLVWLVCSG | inactive
ECRMRLVFHRSIGYTTQCFV | 3.37 ± 0.064
SRIRDLVPHIRC | -0.594 ± 1.1
ALNGFVYALLAGPGQRLIKP | 1.36 ± 0.53
FDGRETQENGNSYMCEGW | 0.419 ± 0.5
IGTLSRNERASRNTHWDILT | 0.757 ± 0.47
RIFVWVGSVWFWGVS | 3.55 ± 0.13
GHYKISKAFTVTST | 2.58 ± 0.095
VRAYLQYR | 0.094 ± 0.74
IHIWGSLSIDIEFVCGMKAR | 1.04 ± 0.56
IIALKMVVLIKCIKVY | inactive
SIRSFSFISESNQLLEHVRK | 0.119 ± 0.54
GFVERNMYAVDNDFYVQNQT | -1.2 ± 0.56
IRVNMSVTITRGWICHRLCK | 0.293 ± 0.27
GAIIDITRFGFLLYF | -0.847 ± 0.34

Substance | amyloid nucleation score
ALNLIV | -0.572 ± 0.32
LNKMECPCLFCVCVAFVIEW | 5.38 ± 0.067
AIRRPDRSQFLAYLVSSCKF | -0.218 ± 0.45
GSDAVR | 2.7 ± 0.082
STMAGTLW | 0.051 ± 0.4
RSELLRRKGILMYLLPGGGY | 0.009 ± 0.61
HVCCLKLVRCAGGGFVVKHV | 0.779 ± 0.18
MFMSQIPYQCGVKSNSVISK | -0.357 ± 0.49
ILYLGHN | -1.61 ± 0.64
RFSQRNPITVHGQSDTV | inactive
PSSVKWTRSPGMRTTNGEVC | 1.36 ± 0.23
GHLLASKLLQSSYETCS | 0.286 ± 0.62
MKKWWPVICFGWSQVSFRVE | 3.21 ± 0.16
VFGSVADMHM | inactive
AGSQVVVMVIGVSTWAVVDG | 3.01 ± 0.14
NCFFITGGNGYNAVLLKYIC | 3.83 ± 0.04
RADALIVTVARFTPPALVKV | 1.15 ± 0.68
HRVSMKEGVEC | 0.256 ± 0.31
RYNLARSLLFHHNTCVFMSV | -0.491 ± 0.53
AWRAYITILGKDHAVSVSGL | 0.715 ± 0.43
CILRPSLSFFHMPLR | 6.962 ± 0.033
WTTMRLFLDFMYTLDRVGST | -0.291 ± 1.1
FIAGLS | -0.734 ± 0.76
YRNVPRRMYRCVGISWS | 1.13 ± 0.11
MMGECNFCSIGRH | 4.83 ± 0.078

Substance | amyloid nucleation score
VVNKLF | inactive
SLVLVDFAYSWMSGSAFWFF | -1.09 ± 1.1
GPISVKRYL | 1.64 ± 0.35
WTYGVTRLSSLCSAIDLSLG | -0.598 ± 1.1
ILATSRVILVFCAMCACRWG | 2.98 ± 0.062
MLRHSANMIKMLKHTTTND | 0.004 ± 0.45
IDFSRQTYLNCKKSRSSLLS | -0.437 ± 0.61
GWPHKVEFKVNDIFMIFSMM | 5.281 ± 0.034
LNYDNFE | inactive
RVFSLDWVIERMSVEFHSWG | inactive
VCDRFWFSLDLWLFIRTFRF | -0.679 ± 1.1
NDRILPYSNLWHWERLV | -0.567 ± 1.1
YLSGLIIS | -0.593 ± 1.1
PFYTYSKYKCTKFTDNYYAQ | -1.02 ± 1.1
FCKFMSCESRPCNIMKCWGV | 0.276 ± 0.6
VYLGIFRL | 2.76 ± 0.13
VFYCKRVAMDNTSCRNSSYL | -0.536 ± 0.31
SKFVSKSEV | -0.983 ± 1.1
FSSLRILTERENFHLVSGVH | -1 ± 0.78
RPRVVTQLFMYLNDCRGSPP | 6.693 ± 0.055
SQPHYGRASACRSSSSR | 0.831 ± 0.51
AMSPGTVKRFGLLVALFQY | 0.867 ± 0.74
PGSNL | -0.037 ± 0.42
LASYLRFSISSVIFNTRAIL | -0.315 ± 0.54
GDSPNNSYWIADSW | 2.75 ± 0.15

Substance | amyloid nucleation score
SARFIIIWNWALSPRPRRCE | 7.561 ± 0.041
YLLALRCLFLLYRVYWFSIE | -0.129 ± 0.39
TRDCHYMVGRLMIEWFQSVW | -0.063 ± 0.21
FREVSSLRCIIFLHITCRNS | 0.647 ± 0.57
MGFIRINWLNSVLRSPPTHR | 5.527 ± 0.044
NVLDVGVGRTFVFK | -0.291 ± 0.79
VLHRLRSLLERFLFYVDLIS | 0.355 ± 0.65
QGGMMWGLLSYCEVLDDSDV | -0.08 ± 1
MDGVMRTRFFLDSDVFYSSH | 3.69 ± 0.046
SLNYIFLNLCRYLSCGIYIH | inactive
CSSNCFYEAFVLGYKTHARE | 0.295 ± 1
WSPYEEPR | 0.298 ± 0.35
NLLYKMTMWTKFGRLSSCCK | 0.001 ± 0.42
IFYYG | -0.945 ± 0.36
VCDVLYKFGYSKN | 4.89 ± 0.058
TESIFCSYSWVCVGVMSNYD | 5.1 ± 0.071
GSLKCDAHLG | 0.339 ± 0.18
SGCPNDWQYFSS | -1.08 ± 0.54
WLPYTCNFVMTVSRYSSMRG | inactive
HSAIDMWS | -0.903 ± 0.44
QLNDWSYMVKFSAV | -0.466 ± 0.64
MMSSRILGVFDSSSTICVRH | -0.218 ± 0.38
YPQGVGSDLTS | 0.953 ± 0.19
YYVLWSGVGIVMDSAYDTIC | -0.017 ± 1
ACCFESSGIQLEVRGGGAWG | 1.58 ± 0.27

Substance | amyloid nucleation score
AIWYFFIRNYYPSLLQKRSL | 1.89 ± 0.12
SSYRSEGSAYGMPYYPVSAS | 1.06 ± 0.38
TYLMSFICNNLRVDIANINR | 0.141 ± 0.3
KSPPFMGSAERVSRRNGRGL | -0.417 ± 0.36
GYSGVLILWEVVICWYGVTG | -0.313 ± 0.61
CSSEDITYAWQWARWLRS | 0.494 ± 0.41
YKLRSQ | -0.184 ± 0.27
RAIDRRKVFARYVFWSFSWT | -0.141 ± 0.33
QYVVNLFYPLYMEKKCWSSI | 6.288 ± 0.039
RGINKTDIFVFELCVHDVCL | 2.58 ± 0.16
LGNWCGYWYFHHISSYGLMR | -0.419 ± 0.5
LDISSDPFFSS | -1.25 ± 1.1
STDWNLRPGPSLRWLLSPAT | 0.92 ± 0.45
HYAFVLGYKFYYGVANYCDG | 0.886 ± 0.66
DCRFQIHVCDAYDK | inactive
VRKLSRNLMICYKTVLSGDC | -0.105 ± 0.65
SVRKGVFNSSMNGVCTTVQS | -0.28 ± 0.74
GRVISCVGLTAFNKAVGSCR | 0.626 ± 0.42
SCYLVYEFLLTGVSWWQSRL | 0.794 ± 0.48
IYYDVFSVSCTFVKLGWIFL | 1.96 ± 0.077
SHRCELKWTGLVMNYKVVHC | 1.71 ± 0.25
